Data taken from patent publication US20180346600A1 (AJOU UNIVERSITY INDUSTRY ACADEMIC COOPERATION FOUNDATION, published 2018).
Residue numbers refer to the chain shown, from its start. Names may count otherwise. Each block holds one binder with its values, some of them ahead of it.

Columns and labels:
[1] = biological target: T1, displayed FcCH3A, A210 (E357A/S364Y/K370E), on yeast cell surface (human, UniProt P0DOX5 227-449 = IgG part); assay: flow cytometry of diploid yeast: MFI of Flag-tagged secreted FcCH3B held on displayed FcCH3A (anti-Flag mouse mAb and PE anti-mouse antibody), normalised to EW-RVT = 100 %
T1 construct: also called A210 CH3A chain (yeast)
T1 Fc: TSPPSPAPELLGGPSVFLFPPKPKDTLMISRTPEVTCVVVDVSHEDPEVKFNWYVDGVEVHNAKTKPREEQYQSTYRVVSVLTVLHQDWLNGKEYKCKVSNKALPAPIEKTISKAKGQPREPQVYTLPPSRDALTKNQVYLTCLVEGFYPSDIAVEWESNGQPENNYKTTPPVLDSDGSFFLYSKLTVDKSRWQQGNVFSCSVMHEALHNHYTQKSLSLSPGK
Excerpt: (§1) FACS was sequentially performed four times. […] Table 9 below summarizes the mutation pairs introduced into individual clones selected from the respective LibA2 and LibB2 libraries.

[2] = biological target: T2, Hole-Hole (displayed FcCH3A on yeast cell surface); assay: flow cytometry histogram (PE, FL2-H) of diploid yeast: Flag-tagged secreted FcCH3B held on displayed FcCH3A, anti-Flag mouse mAb and PE anti-mouse antibody
T2 construct: also called Hole-Hole (Genentech) CH3A chain (yeast), T366S/L368A/Y407V
T2 Fc: T1 Fc with A133E, Y140S, T142S, L144A, E146K, Y183V
Procedure: (§2) Specifically, the diploid in which the expression of the heterodimeric heavy chain constant region was induced was reacted with an antibody recognizing flag-tag included in the secreted FcCH3B (anti-Flag mouse mAb, F3165) (Sigma-Aldrich) and an antibody conjugated with PE (phycoerythrin conjugated anti-mouse mAb, sc-3738) (Santa Cruz biotechnology), and a signal of PE was analyzed by flow cytometry.

[3] = biological target: T3, displayed FcCH3A, B212 (K392I/D399L), on yeast cell surface (human, UniProt P0DOX5 227-449 = IgG part); assay: flow cytometry of diploid yeast: MFI of Flag-tagged secreted FcCH3B held on displayed FcCH3A (anti-Flag mouse mAb and PE anti-mouse antibody), normalised to EW-RVT = 100 %
T3 construct: also called B212 CH3A chain (yeast)
T3 Fc: T1 Fc with A133E, Y140S, E146K, K168I, D175L
Excerpt: as §1

[4] = biological target: T4, displayed FcCH3A, B235 (K392C/D399L), on yeast cell surface (human, UniProt P0DOX5 227-449 = IgG part, chain 1 pos 168 (K392C): said to form an inter-chain disulfide with D399C of the CH3B partner); assay: as above
T4 construct: also called B235 CH3A chain (yeast)
T4 Fc: T1 Fc with A133E, Y140S, E146K, K168C, D175L
Excerpt: as §1

[5] = biological target: T5, displayed FcCH3A, B239 (K392L/D399L), on yeast cell surface (human, UniProt P0DOX5 227-449 = IgG part); assay: as above
T5 construct: also called B239 CH3A chain (yeast)
T5 Fc: T1 Fc with A133E, Y140S, E146K, K168L, D175L
Excerpt: as §1

[6] = biological target: T6, B168w/oW-VT (displayed FcCH3A on yeast cell surface); assay: as above
T6 construct: also called B168w/oW-VT CH3A chain (yeast), D399L
T6 Fc: T1 Fc with A133E, Y140S, E146K, D175L
Excerpt: as §1

[7] = biological target: T7, displayed FcCH3A, B215 (K392R/K409R/D399L), on yeast cell surface (human, UniProt P0DOX5 227-449 = IgG part); assay: as above
T7 construct: also called B215 CH3A chain (yeast)
T7 Fc: T1 Fc with A133E, Y140S, E146K, K168R, D175L, K185R
Excerpt: as §1

[8] = biological target: T8, displayed FcCH3A, A216 (E357G/S364W/K370E), on yeast cell surface (human, UniProt P0DOX5 227-449 = IgG part); assay: as above
T8 construct: also called A216 CH3A chain (yeast)
T8 Fc: T1 Fc with A133G, Y140W
Excerpt: as §1

[9] = biological target: T9, displayed FcCH3A, B240 (K392S/K409R/D399L), on yeast cell surface (human, UniProt P0DOX5 227-449 = IgG part); assay: as above
T9 construct: also called B240 CH3A chain (yeast)
T9 Fc: T1 Fc with A133E, Y140S, E146K, K168S, D175L, K185R
Excerpt: as §1

[10] = biological target: T10, displayed FcCH3A, KiH (Genentech) (T366S/L368A/Y407V), on yeast cell surface (human, UniProt P0DOX5 227-449 = IgG part); assay: flow cytometry histogram (PE, FL2-H) of diploid yeast: Flag-tagged secreted FcCH3B held on displayed FcCH3A, anti-Flag mouse mAb and PE anti-mouse antibody
T10 construct: also called KiH CH3A chain (yeast)
T10 Fc: T1 Fc with A133E, Y140S, T142S, L144A, E146K, Y183V
Procedure: as §2

[11] = biological target: T11, displayed FcCH3A, B256 (K392N/D399L), on yeast cell surface (human, UniProt P0DOX5 227-449 = IgG part); assay: flow cytometry of diploid yeast: MFI of Flag-tagged secreted FcCH3B held on displayed FcCH3A (anti-Flag mouse mAb and PE anti-mouse antibody), normalised to EW-RVT = 100 %
T11 construct: also called B256 CH3A chain (yeast)
T11 Fc: T1 Fc with A133E, Y140S, E146K, K168N, D175L
Excerpt: as §1

[12] = biological target: T12, displayed FcCH3A, A241 (E357N/S364W/K370E), on yeast cell surface (human, UniProt P0DOX5 227-449 = IgG part); assay: as above
T12 construct: also called A241 CH3A chain (yeast)
T12 Fc: T1 Fc with A133N, Y140W
Excerpt: as §1

B1: secreted FcCH3B, A210 (E357N/K370H), from yeast (other)
chain: T1 Fc with A133N, Y140S, E146H
notes: also called A210 CH3B chain (yeast); not shown: flag-tag
- binding result [1]: binds

B3: secreted FcCH3B, B212 (D399G/K392G/K409M), from yeast (other)
chain: T1 Fc with A133E, Y140S, E146K, K168G, D175G, K185M
notes: also called B212 CH3B chain (yeast); not shown: flag-tag
- binding result [3]: binds

B4: secreted FcCH3B, B235 (D399C/K392G/K409M), from yeast (other)
chain: T1 Fc with A133E, Y140S, E146K, K168G, D175C, K185M
notes: also called B235 CH3B chain (yeast); not shown: flag-tag
- binding result [4]: binds

B5: secreted FcCH3B, B239 (D399S/K392G/K409M), from yeast (other)
chain: T1 Fc with A133E, Y140S, E146K, K168G, D175S, K185M
notes: also called B239 CH3B chain (yeast); not shown: flag-tag
- binding result [5]: binds

B6: B168w/oW-VT (secreted FcCH3B from yeast) (other)
secreted Fc chain (hinge-CH2-CH3B): T1 Fc with A133E, Y140S, E146K, K168G, K185M
notes: also called B168w/oW-VT CH3B chain (yeast), K392G/K409M
- binding result [6]: binds

B7: secreted FcCH3B, B215 (D399W/K392G/K409M), from yeast (other)
chain: T1 Fc with A133E, Y140S, E146K, K168G, D175W, K185M
notes: also called B215 CH3B chain (yeast); not shown: flag-tag
- binding result [7]: binds

Results, then the binder that gave them:

- binding result [2]: no binding
B2: Hole-Hole (secreted FcCH3B from yeast) (other)
secreted Fc chain (hinge-CH2-CH3B): T1 Fc with A133E, Y140S, T142S, L144A, E146K, Y183V
notes: also called Hole-Hole (Genentech) CH3B chain (yeast), T366S/L368A/Y407V

- binding result [8]: binds
B8: secreted FcCH3B, A216 (E357N), from yeast (other)
chain: T1 Fc with A133N, Y140S, E146K
notes: also called A216 CH3B chain (yeast); not shown: flag-tag

- binding result [9]: binds
B9: secreted FcCH3B, B240 (D399G/K392G/K409M), from yeast (other)
chain: T1 Fc with A133E, Y140S, E146K, K168G, D175G, K185M
notes: also called B240 CH3B chain (yeast); not shown: flag-tag

- binding result [10]: binds
B10: secreted FcCH3B, KiH (Genentech) (T366W), from yeast (other)
chain: T1 Fc with A133E, Y140S, T142W, E146K
notes: also called KiH CH3B chain (yeast); not shown: flag-tag

- binding result [11]: binds
B11: secreted FcCH3B, B256 (D399V/K392G/K409M), from yeast (other)
chain: T1 Fc with A133E, Y140S, E146K, K168G, D175V, K185M
notes: also called B256 CH3B chain (yeast); not shown: flag-tag

- binding result [12]: binds
B12: secreted FcCH3B, A241 (E357N), from yeast (other)
chain: T1 Fc with A133N, Y140S, E146K
notes: also called A241 CH3B chain (yeast); not shown: flag-tag
